# Values of other authors in PMC3022542.
# pKd: −log10 of the molar value. Like-named read-outs stand apart in the source and are kept apart here.
# Experiments:
# [1] = target: importin α5 (Homo sapiens) (UniProt P52294); test: isothermal titration calorimetry
# [2] = target: importin α5 (Homo sapiens) (UniProt P52294); test: isothermal titration calorimetry; remark: listed apart in the source
# Chain of UniProt P52294 (P52294 whole entry): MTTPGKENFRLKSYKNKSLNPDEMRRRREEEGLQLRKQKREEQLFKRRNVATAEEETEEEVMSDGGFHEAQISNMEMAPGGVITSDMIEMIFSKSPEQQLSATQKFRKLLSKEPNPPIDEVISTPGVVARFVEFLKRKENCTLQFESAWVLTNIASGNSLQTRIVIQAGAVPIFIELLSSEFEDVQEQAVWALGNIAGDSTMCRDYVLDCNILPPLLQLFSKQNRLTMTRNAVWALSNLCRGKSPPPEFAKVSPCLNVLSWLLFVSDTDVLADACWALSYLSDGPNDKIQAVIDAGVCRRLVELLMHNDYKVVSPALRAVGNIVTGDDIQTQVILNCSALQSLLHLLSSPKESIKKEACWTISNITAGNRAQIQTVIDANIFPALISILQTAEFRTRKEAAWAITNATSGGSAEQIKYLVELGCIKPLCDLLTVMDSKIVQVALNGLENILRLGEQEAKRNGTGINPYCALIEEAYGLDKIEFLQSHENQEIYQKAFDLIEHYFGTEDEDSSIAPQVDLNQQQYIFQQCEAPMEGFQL
substance,measurement,setting,value
EBNA-1 NLS peptide NLS (from UniProt P03211),pKd,[1],4.22
same,pKd,[2],5.52
